Numbering of substitutions follows the chain as printed. Several values for one entry are separate records, joined by “and”; a condition that tells them apart may be missing. Equal entries are not always repeated.
B1: anti-IL-6R IgG antibody C07 (antibody, V domains shown)
VH: EVKLVESGGGLVQPGGSLKLSCAASGFTFSSYAMSWVRQTADKRLELVANINSNGGSTYYPDSVKGRFTISRDNAKNTLFLQMSSLKSEDTAMYYCAREGYYTMDYWGQGTSVTVSS
VL: DIVLTQSPASLAVSPGQRATISCRASESVDSYGNSFMNWYQQKPGQPPKLLIYLASNLESGVPARFSGSGSRTDFTLTIDPVEADDAATYYCQQNNEDPYTFGGGTKLEIK
B2: anti-IL-6R IgG antibody C19 (antibody, V domains shown)
VH: B1 VH with V5M, S31N, A33G, A41P, N50I, I51M, N54K, K65M, F80Y, E99D
VL: B1 VL with P15L, E27K, Y32F, N38H, P47S, K49R, Y53F
B3: anti-IL-6R IgG antibody C20 (antibody, V domains shown)
VH: EVKLMESGGGLVQPGGSLKLSCAASGFTFSNYGMSWVRQTPDKRLELVAIINSNGGSTYYPDSVKGRFTISRDNAKNTLYLQMSSLKSEDTAIYYCARDGNFVSDYWGQGTTLTVSS
VL: B1 VL with P15L, S35R, M37L
B4: anti-IL-6R IgG antibody 09 (C09 antibody, Fab chimerized with human IgG1) (antibody, V domains shown)
VH: B3 VH with K3Q, M5V, G10D, I50A, I93M, F102Y
VL: B1 VL with P15L, N38H, Y100W
B5: anti-IL-6R IgG antibody 07 (C07 antibody, Fab chimerized with human IgG1) (antibody, V domains shown)
VH: B1 VH
VL: B1 VL
B6: anti-IL-6R IgG antibody C09 (antibody, V domains shown)
VH: B3 VH with K3Q, M5V, G10D, I50A, I93M, F102Y
VL: B1 VL with P15L, N38H, Y100W
B7: anti-IL-6R IgG antibody C12 (antibody, V domains shown)
VH: B3 VH with L47W, I50N, K76Q, I93M, A97T
VL: B1 VL

Tests used:
Assay in all cases: cell-based or functional assay
human soluble IL-6R [1] = target: T1, human soluble IL-6R (human, UniProt P08887 20-357)
T1 sequence: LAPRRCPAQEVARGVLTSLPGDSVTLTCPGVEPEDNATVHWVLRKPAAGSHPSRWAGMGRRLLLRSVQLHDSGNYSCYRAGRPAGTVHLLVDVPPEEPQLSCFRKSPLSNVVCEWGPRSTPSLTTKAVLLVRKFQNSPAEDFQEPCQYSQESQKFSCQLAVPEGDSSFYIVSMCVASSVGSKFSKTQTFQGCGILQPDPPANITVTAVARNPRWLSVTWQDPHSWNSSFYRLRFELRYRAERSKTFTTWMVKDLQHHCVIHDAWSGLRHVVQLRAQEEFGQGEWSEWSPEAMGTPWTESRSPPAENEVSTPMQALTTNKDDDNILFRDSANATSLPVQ

[2] = target: T2, human membrane-bound IL-6R subunit alpha (human, UniProt P08887 20-468)
T2 sequence: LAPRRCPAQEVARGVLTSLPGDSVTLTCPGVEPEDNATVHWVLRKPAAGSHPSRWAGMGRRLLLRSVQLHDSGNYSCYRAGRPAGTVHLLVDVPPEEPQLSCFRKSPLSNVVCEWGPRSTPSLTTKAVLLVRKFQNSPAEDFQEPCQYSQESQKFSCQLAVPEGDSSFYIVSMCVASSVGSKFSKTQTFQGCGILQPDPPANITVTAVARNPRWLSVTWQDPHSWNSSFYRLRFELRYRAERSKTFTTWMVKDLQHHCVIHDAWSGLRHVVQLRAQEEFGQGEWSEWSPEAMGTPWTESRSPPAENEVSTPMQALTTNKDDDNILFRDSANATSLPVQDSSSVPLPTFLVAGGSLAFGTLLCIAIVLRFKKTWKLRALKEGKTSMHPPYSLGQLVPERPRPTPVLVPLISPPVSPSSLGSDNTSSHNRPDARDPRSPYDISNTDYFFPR

human soluble IL-6R [3] = target: T3, human soluble IL-6R (human, UniProt P08887 20-357, limits assumed)
T3 sequence: T1 sequence

[4] = target: T4, mouse membrane-bound IL-6R subunit alpha (mouse, UniProt P22272 20-460)
T4 sequence: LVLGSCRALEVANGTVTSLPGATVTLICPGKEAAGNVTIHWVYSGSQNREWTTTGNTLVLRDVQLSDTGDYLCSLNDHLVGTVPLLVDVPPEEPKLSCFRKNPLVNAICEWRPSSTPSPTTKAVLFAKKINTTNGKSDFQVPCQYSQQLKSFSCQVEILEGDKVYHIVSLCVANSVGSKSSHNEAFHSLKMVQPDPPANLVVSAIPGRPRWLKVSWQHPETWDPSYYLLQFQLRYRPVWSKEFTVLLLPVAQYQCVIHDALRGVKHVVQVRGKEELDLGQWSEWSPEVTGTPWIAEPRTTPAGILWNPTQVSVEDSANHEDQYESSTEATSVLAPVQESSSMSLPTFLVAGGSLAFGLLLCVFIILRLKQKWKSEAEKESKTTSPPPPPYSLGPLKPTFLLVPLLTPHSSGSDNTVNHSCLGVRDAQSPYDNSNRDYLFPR

murine soluble IL-6R = target: T5, murine soluble IL-6R (mouse, UniProt P22272 20-347, limits assumed)
T5 sequence: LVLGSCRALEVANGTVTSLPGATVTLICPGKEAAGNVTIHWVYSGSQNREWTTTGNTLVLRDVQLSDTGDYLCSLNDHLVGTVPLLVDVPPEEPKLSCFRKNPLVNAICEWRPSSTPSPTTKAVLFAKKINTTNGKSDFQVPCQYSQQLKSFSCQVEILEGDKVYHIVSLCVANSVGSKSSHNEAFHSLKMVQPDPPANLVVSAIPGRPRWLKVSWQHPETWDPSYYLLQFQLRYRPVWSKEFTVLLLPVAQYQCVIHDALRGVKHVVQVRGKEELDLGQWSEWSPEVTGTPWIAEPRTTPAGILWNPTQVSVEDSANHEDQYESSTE

[5] = target: T6, human membrane-bound IL-6R subunit alpha (human, UniProt P08887 20-468); remark: listed apart in the source
T6 sequence: T2 sequence

[6] = target: T6, human membrane-bound IL-6R subunit alpha; remark: listed apart in the source
[7] = target: Hyper-IL-6 (recombinant fusion protein consisting of IL-6 and soluble IL-6R)
[8] = target: T6, human membrane-bound IL-6R subunit alpha; remark: listed apart in the source
[9] = target: T6, human membrane-bound IL-6R subunit alpha; remark: listed apart in the source
[10] = target: T4, mouse membrane-bound IL-6R subunit alpha; remark: listed apart in the source
[11] = target: T6, human membrane-bound IL-6R subunit alpha; remark: listed apart in the source
human soluble IL-6R [12] = target: T3, human soluble IL-6R; remark: listed apart in the source

Binder	Proliferation in % (Ba/F3_gp130 cells, IL-6 + sIL-6R = 100%; IL-6 trans signalling) at IgG 10 ng/ml (human soluble IL-6R [1])	Proliferation in % (Ba/F3_gp130 cells, IL-6 + sIL-6R = 100%; IL-6 trans signalling) at IgG 100 ng/ml (human soluble IL-6R [1])	Proliferation in % (Ba/F3_gp130 cells, IL-6 + sIL-6R = 100%; IL-6 trans signalling) at IgG 300 ng/ml (human soluble IL-6R [1])	Proliferation in % (Ba/F3_gp130 cells, IL-6 + sIL-6R = 100%; IL-6 trans signalling) at IgG 500 ng/ml (human soluble IL-6R [1])	Proliferation in % (Ba/F3_gp130 cells, IL-6 + sIL-6R = 100%; IL-6 trans signalling) at IgG 700 ng/ml (human soluble IL-6R [1])	Proliferation in % (Ba/F3_gp130 cells, IL-6 + sIL-6R = 100%; IL-6 trans signalling) at IgG 1,000 ng/ml (human soluble IL-6R [1])	Proliferation in % (Ba/F3_gp130 cells, IL-6 + sIL-6R = 100%; IL-6 trans signalling) at IgG 10,000 ng/ml (human soluble IL-6R [1])	IC50 for the inhibition of IL-6 classical signalling-induced proliferation (Ba/F3_gp130_IL-6R cells + IL-6) [2]	IC50 for the inhibition of IL-6 mixed signalling-induced proliferation (Ba/F3_gp130_IL-6R cells + IL-6 + sIL-6R) [2]	further results
B1	98.8%	92.2%	78.3%	70.2%	55.3%	41.2%	9.6%	> 10 µg/mL	> 10 µg/ml and > 53 nM	
B2	99.2%	92.2%	88.5%	78.3%	72.3%	57.7%	10.8%	> 10 µg/mL	> 10 µg/ml and > 53 nM	
B3	103%	88.5%	84.8%	52.8%	36.1%	16.3%	6.5%	> 10 µg/mL	> 10 µg/ml and > 53 nM	
B4										STAT3 phosphorylation in % in HEK293 cells (10 ng/ml IL-6 + 200 ng/ml sIL-6R for 30 min = 100%), IgG at 1 µg/ml (human soluble IL-6R [3]): 20%; Proliferation in % of Ba/F3_gp130_muIL-6R cells (10 ng/ml murine IL-6 + 200 ng/ml murine soluble IL-6R = 100%, mixed signalling), IgG at 10 µg/ml [4]: 106%; Proliferation in % of Ba/F3_gp130 cells (10 ng/ml murine IL-6 + 200 ng/ml murine soluble IL-6R = 100%), IgG at 10 µg/ml (murine soluble IL-6R): 104%; Proliferation in % of Ba/F3_gp130_IL-6R cells (10 ng/ml IL-6 = 100%), IgG at 1 µg/ml [5]: 100%; Proliferation in % of Ba/F3_gp130_IL-6R cells (10 ng/ml IL-6 = 100%), IgG at 10 µg/ml [5]: 94%; STAT3 phosphorylation in % in HEK293_IL-6R cells (10 ng/ml IL-6 for 30 min = 100%), IgG at 1 µg/ml [6]: 69.7%; IC50 of inhibition of proliferation of Ba/F3_gp130 cells induced by 28 ng/ml Hy-IL-6 [7]: 4130 ng/ml and 28 nM; IC50 for inhibition of IL-6 classical signalling-induced proliferation [8]: > 53 nM; Proliferation in % of Ba/F3_gp130_IL-6R cells with 10 ng/ml IL-6 and 200 ng/ml sIL-6R (mixed signalling), IgG at 1 µg/ml [9]: 101%; Proliferation in % of Ba/F3_gp130_IL-6R cells with 10 ng/ml IL-6 and 200 ng/ml sIL-6R (mixed signalling), IgG at 10 µg/ml [9]: 97.6%; Proliferation in % of Ba/F3_gp130_muIL-6R cells (10 ng/ml murine IL-6 = 100%), IgG at 10 µg/ml [10]: 104%; STAT3 phosphorylation in % in HEK293_IL-6R cells (10 ng/ml IL-6 + 200 ng/ml sIL-6R = 100%, mixed signalling), IgG at 1 µg/ml [11]: 102%; IC50 of inhibition of proliferation of Ba/F3_gp130 cells induced by 10 ng/ml IL-6 and 200 ng/ml sIL-6R (human soluble IL-6R [12]): 5260 ng/ml and 35 nM
B5										STAT3 phosphorylation in % in HEK293 cells (10 ng/ml IL-6 + 200 ng/ml sIL-6R for 30 min = 100%), IgG at 1 µg/ml (human soluble IL-6R [3]): 2.8%; Proliferation in % of Ba/F3_gp130_muIL-6R cells (10 ng/ml murine IL-6 + 200 ng/ml murine soluble IL-6R = 100%, mixed signalling), IgG at 10 µg/ml [4]: 108%; Proliferation in % of Ba/F3_gp130 cells (10 ng/ml murine IL-6 + 200 ng/ml murine soluble IL-6R = 100%), IgG at 10 µg/ml (murine soluble IL-6R): 104%; Proliferation in % of Ba/F3_gp130_IL-6R cells (10 ng/ml IL-6 = 100%), IgG at 1 µg/ml [5]: 92%; Proliferation in % of Ba/F3_gp130_IL-6R cells (10 ng/ml IL-6 = 100%), IgG at 10 µg/ml [5]: 90.8%; STAT3 phosphorylation in % in HEK293_IL-6R cells (10 ng/ml IL-6 for 30 min = 100%), IgG at 1 µg/ml [6]: 86.2%; IC50 of inhibition of proliferation of Ba/F3_gp130 cells induced by 28 ng/ml Hy-IL-6 [7]: 644 ng/ml and 4.3 nM; IC50 for inhibition of IL-6 classical signalling-induced proliferation [8]: > 53 nM; Proliferation in % of Ba/F3_gp130_IL-6R cells with 10 ng/ml IL-6 and 200 ng/ml sIL-6R (mixed signalling), IgG at 1 µg/ml [9]: 93%; Proliferation in % of Ba/F3_gp130_IL-6R cells with 10 ng/ml IL-6 and 200 ng/ml sIL-6R (mixed signalling), IgG at 10 µg/ml [9]: 85.9%; Proliferation in % of Ba/F3_gp130_muIL-6R cells (10 ng/ml murine IL-6 = 100%), IgG at 10 µg/ml [10]: 101%; STAT3 phosphorylation in % in HEK293_IL-6R cells (10 ng/ml IL-6 + 200 ng/ml sIL-6R = 100%, mixed signalling), IgG at 1 µg/ml [11]: 105%; IC50 of inhibition of proliferation of Ba/F3_gp130 cells induced by 10 ng/ml IL-6 and 200 ng/ml sIL-6R (human soluble IL-6R [12]): 757 ng/ml and 5 nM
B6	98.2%	93.1%	88.3%	82.6%	82.5%	72.9%	25.8%	> 10 µg/mL	> 10 µg/ml and > 53 nM	
B7	101%	98.9%	89.1%	75.3%	66.9%	48.1%	11.6%	> 10 µg/mL	> 10 µg/ml and > 53 nM	

From US20260226179A1 (MAB DESIGNS, published 2026)
